{"source": "paper PMC7725843", "about": "“Structural and biochemical analyses of an aminoglycoside 2′-N-acetyltransferase from Mycolicibacterium smegmatis” (Scientific Reports, 2020)", "proteins": {"B1": {"name": "Aminoglycoside 2′-N-acetyltransferase from Mycolicibacterium smegmatis [AAC(2′)-Id] (enzyme)", "chain": "MLTQHVSEARTRGAIHTARLIHTSDLDQETRDGARRMVIEAFRDPSGDSDFTDDFTDDDWDHALGGMHALISHHGALIAHGAVVQRRLMYRGPDGRGHALRCGYVEAVAVREDRRGDGLGTAVLDALEQVIRGAYQIGALSASDIARPMYIARGWLSWEGPTSVLTPTEGIVRTPEDDRSLFVLPVDLPDGLELDTAREITCDWRSGDPW", "notes": "also called apo-AAC(2′)-Id; AAC(2′) from M. smegmatis; source: E. coli BL21(DE3), purified (Ni-NTA, Q-Sepharose, thrombin cleavage, Superdex 200); not shown: His-tag, N-terminal, cleaved"}}, "target": "the molecule itself", "test": "AUC; analytical ultracentrifugation of apo-AAC(2′)-Id; 20 mM Tris-HCl (pH 8.0), 150 mM NaCl, 293 K, 40,000 rpm, monitored at 280 nm, SEDFIT"}
{"protein": "B1", "values": [{"measurement": "stoichiometry N", "value": 2}]}
